# Values of other authors as cited in publication PMC4203807.
# Molecular target: clathrin heavy chain N-terminal domain (Rattus norvegicus) (UniProt P11442)
# Sequence of UniProt P11442 (P11442 1-363): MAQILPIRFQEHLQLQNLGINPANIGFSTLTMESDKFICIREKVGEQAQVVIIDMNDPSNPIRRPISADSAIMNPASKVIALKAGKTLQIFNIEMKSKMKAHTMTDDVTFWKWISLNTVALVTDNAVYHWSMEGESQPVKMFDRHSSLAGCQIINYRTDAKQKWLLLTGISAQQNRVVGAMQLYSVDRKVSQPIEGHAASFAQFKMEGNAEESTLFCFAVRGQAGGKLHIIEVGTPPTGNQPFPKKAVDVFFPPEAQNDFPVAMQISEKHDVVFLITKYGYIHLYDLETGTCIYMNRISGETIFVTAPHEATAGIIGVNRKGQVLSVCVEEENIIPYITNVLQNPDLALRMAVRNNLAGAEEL
substance,measurement,value
AP180 623-680 (from UniProt Q05140),Kd,250 µM
